Results on eight molecules are retold here after patent publication US20250144141A1 (CDR LIFE, published 2025).

Where a chain is given by its changes, count along the chain named. Like-named read-outs stand apart in the source and are kept apart here.

Assay [1] addresses T1, HLA-A*02:01/MAGE-A4 complex (human, UniProt P04439 25-299 at identity 0.94); P61769 21-119).
T1 construct: Coated on ELISA plates and on a streptavidin SPR chip; a biotin tag is not described; also called HLA-A2/MAGE-A4 complex; pMHC-MAGE-A4
Nature of the assay: direct ELISA, plate coated with HLA-A*02:01/MAGE-A4 complex, serial dilution of the Fab. Background: In an ELISA, binding on a coated surface is turned into a signal by an enzyme label.

The target in assay [2] is T1, HLA-A*02:01/MAGE-A4 complex. The assay can be described thus: SPR. (SPR reads the build-up and loss of mass on a sensor chip optically.)
Assay [3] has the same target. The assay can be described thus: SPR. This is another data set of the same source.
Assay [4] shares this target. Nature of the assay: direct ELISA, plate coated with HLA-A*02:01/MAGE-A4 complex, as in Example 6.
Assay [5] has as its target HLA-A*02:01/MAGE-A4 displayed on T2 cells (human). Nature of the assay: cell-based or functional assay.
In assay [6] the target is T1, HLA-A*02:01/MAGE-A4 complex. The assay can be described thus: SPR (Biacore T200), HLA-A*02:01/MAGE-A4 as ligand; sample kept in human serum at 37 C for 0, 7 and 24 h and injected after 1:100 dilution; signal relative to the start sample.
For assay [7] the target is unchanged. The description is as above. The source holds these as a separate data set.

B1: M0702 (Fab, V domains shown)
VH: QEQLEESGGGLVTPGTPLTLTCTASGFSLSSYAMIWVRQAPGKGLEWIGTINDGGTAFYANWVKGRFTISRTSTTVDLKMTSPTTEDTATYFCARAYGSNGDVYWGYVNLWGQGTLVTVSS
VL: ELVMTQTPASVSEPVGGTVTIKCQASQSIGSNLAWYQQKPGQPPKLLIYAAANLASGVSSRFKGSRSGTEYTLTISGVQAADAATYYCQQGYSSSNVANVFGGGTELEILR
As for B1, in assay [1], the concentration giving a half-maximal response (EC50 (read off the curve)) (commonly the concentration at which the effect is half-maximal) was around 0.6 nM.

B2: M1067 (bispecific antibody)
chain 1: SYELTQPPSVSVSPGQTASITCTADTLSRSYASWYQQKPGQSPVLVIYRDTSRPSGIPERFSGSNSGNTATLTISGTQAMDEADYYCATRPSSGSNFQLFGGGTKLTVLGGGGGGSGGGGSGGGGSGGGGSEVQLLESGGGSVQPGGSLRLSCTVSGFSLSNYAMSWVRQAPGKGLEYIGIVSSGGTTYYASWAKGRFTISKDTSKNTVYLQMNSLRAEDTASYYCAKDLYYGPTTYSAFNLWGQGTSVTVSS
chain 2: EVQLVESGGGLVQPGGSLRLSCAASGFTFSTYAMNWVRQAPGKGLEWVGRIRSKYNNYATYYADSVKGRFTISRDDSKNTLYLQMNSLRAEDTAVYYCVRHGNFGDSYVSWFAYWGQGTLVTVSSASTKGPSVFPLAPSSKSTSGGTAALGCLVKDYFPEPVTVSWNSGALTSGVHTFPAVLQSSGLYSLSSVVTVPSSSLGTQTYICNVNHKPSNTKVDKRVEPKSC
chain 3: QAVVTQEPSLTVSPGGTVTLTCGSSTGAVTTSNYANWVQQKPGKSPRGLIGGTNKRAPGVPARFSGSLLGGKAALTISGAQPEDEADYYCALWYSNHWVFGGGTKLTVLGQPKAAPSVTLFPPSSEELQANKATLVCLISDFYPGAVTVAWKADSSPVKAGVETTTPSKQSNNKYAASSYLSLTPEQWKSHRSYSCQVTHEGSTVEKTVAPTECS
With B2, the affinity in assay [2], expressed as Kd, was 0.12 nM.

B3: M1312 (bispecific antibody)
chain 1: SSELTQDPAVSVALGQTVRITCTADTLSRSYASWYQQKPGQAPVLVIYRDTSRPSGIPDRFSGSSSGNTASLTITGAQAEDEADYYCATRPSSGSNFQLFGGGTKLTVLGGGGGSGGGGSGGGGSGGGGSEVQLLESGGGSVQPGGSLRLSCTVSGFSLSNYAMSWVRQAPGKGLEWIGIVSSGGTTYYASWAKGRFTISKDTSKNTVYLQMNSLRAEDTASYYCAKDLYYGPNTDYSAANLWGQGTSVTVSS
chain 2: B2 chain 2
chain 3: B2 chain 3
For the molecule B3, in assay [3], the Kd (in general, the constant that tells how readily two partners part at equilibrium) is 0.8 nM.

B4: M1068 (bispecific antibody)
chain 1: B2 chain 1 with Y178W
chain 2: B2 chain 2
chain 3: B2 chain 3
B4: in assay [3], the affinity, expressed as Kd, was 1 nM.

B5: M1394 (bispecific antibody)
chain 1: B3 chain 1 with K201R, T203N
chain 2: B2 chain 2
chain 3: B2 chain 3
B5: the Kd in assay [3] worked out at 1.4 nM. The Kd values of the last two molecules are within 1.5-fold of each other.

B6: M0873 (antibody, V domains shown)
VH: ESQVLESGGGSVQPGGSLRLSCTVSGFSLSNYAMSWVRQAPGKGLEYIGIVSSGGTTYYASWAKGRFTISKDTSKNTVYLQMNSLRAEDTASYYCAKDLYYGPTTYSAFNLWGQGTSVTVSS
VL: SYELTQPPSVSVSPGQTASITCTADTLSRSYASWYQQKPGQSPVLVIYRDTSRPSGIPERFSGSNSGNTATLTISGTQAMDEADYYCATSDGSGSNFQLFGGGTKLTVL
Regarding B6, the “EC50 (read off the curve)” value in assay [4] is around 1 nM.

B7: M1397 (bispecific antibody)
heavy: EVQLVESGGGLVQPGGSLRLSCAASGFTFSTYAMNWVRQAPGKGLEWVGRIRSKYNNYATYYADSVKGRFTISRDDSKNTLYLQMNSLRAEDTAVYYCVRHGNFGDSYVSWFAYWGQGTLVTVSSASTKGPSVFPLAPSSKSTSGGTAALGCLVKDYFPEPVTVSWNSGALTSGVHTFPAVLQSSGLYSLSSVVTVPSSSLGTQTYICNVNHKPSNTKVDKRVEPKSCGGGGSQSVLTQDPAVSVALGQTVRITCTADTLSRSYASWYQQKPGQAPVLVIYRDTSRPSGIPDRFSGSSSGNTASLTITGAQAEDEADYYCATRPSSGSNFQAFGGGTKLTVLGGGGGSGGGGSGGGGSGGGGSEVQLLESGGGSVQPGGSLRLSCTVSGFSLSNYAMSWVRQAPGKGLEWIGIVSSGGTTYYADSVKGRFTISRDNSKNTVYLQMNSLRAEDTASYYCAKDLYYGPNTDYSAANLWGQGTSVTVSS
light: QAVVTQEPSLTVSPGGTVTLTCGSSTGAVTTSNYANWVQQKPGKSPRGLIGGTNKRAPGVPARFSGSLLGGKAALTISGAQPEDEADYYCALWYSNHWVFGGGTKLTVLGQPKAAPSVTLFPPSSEELQANKATLVCLISDFYPGAVTVAWKADSSPVKAGVETTTPSKQSNNKYAASSYLSLTPEQWKSHRSYSCQVTHEGSTVEKTVAPTECSGGGGSQSVLTQDPAVSVALGQTVRITCTADTLSRSYASWYQQKPGQAPVLVIYRDTSRPSGIPDRFSGSSSGNTASLTITGAQAEDEADYYCATRPSSGSNFQAFGGGTKLTVLGGGGGSGGGGSGGGGSGGGGSEVQLLESGGGSVQPGGSLRLSCTVSGFSLSNYAMSWVRQAPGKGLEWIGIVSSGGTTYYADSVKGRFTISRDNSKNTVYLQMNSLRAEDTASYYCAKDLYYGPNTDYSAANLWGQGTSVTVSS
notes: Fab(scFv)2 dual pMHC-targeting T cell engager, no Fc; also called dual engager M1397; dual T cell engager M1397
With B7, in assay [5], the “IFN-gamma release (T cell activation) with PBMCs and T2 cells pulsed with titrated peptide, compound at 1 nM; EC50 on the peptide concentration” value was determined as 5.75 nM. In addition, the binding result in assay [6] is “binds”.

B8: M1403 (bispecific antibody)
heavy: EVQLVESGGGLVQPGGSLRLSCAASGFTFSTYAMNWVRQAPGKGLEWVGRIRSKYNNYATYYADSVKGRFTISRDDSKNTLYLQMNSLRAEDTAVYYCVRHGNFGDSYVSWFAYWGQGTLVTVSSASTKGPSVFPLAPSSKSTSGGTAALGCLVKDYFPEPVTVSWNSGALTSGVHTFPAVLQSSGLYSLSSVVTVPSSSLGTQTYICNVNHKPSNTKVDKRVEPKSCGGGGSSYELTQPPSVSVSPGQTASITCTADTLSRSYASWYQQKPGQSPVLVIYRDTSRPSGIPERFSGSNSGNTATLTISGTQAMDEADYYCATRPSSGSNFQAFGGGTKLTVLGGGGGGSGGGGSGGGGSGGGGSEVQLLESGGGSVQPGGSLRLSCTVSGFSLSNYAMSWVRQAPGKGLEYIGIVSSGGTTYYASWAKGRFTISRDNSKNTVYLQMNSLRAEDTASYYCAKDLYYGPTTYSAFNLWGQGTSVTVSS
light: QAVVTQEPSLTVSPGGTVTLTCGSSTGAVTTSNYANWVQQKPGKSPRGLIGGTNKRAPGVPARFSGSLLGGKAALTISGAQPEDEADYYCALWYSNHWVFGGGTKLTVLGQPKAAPSVTLFPPSSEELQANKATLVCLISDFYPGAVTVAWKADSSPVKAGVETTTPSKQSNNKYAASSYLSLTPEQWKSHRSYSCQVTHEGSTVEKTVAPTECSGGGGSSYELTQPPSVSVSPGQTASITCTADTLSRSYASWYQQKPGQSPVLVIYRDTSRPSGIPERFSGSNSGNTATLTISGTQAMDEADYYCATRPSSGSNFQAFGGGTKLTVLGGGGGGSGGGGSGGGGSGGGGSEVQLLESGGGSVQPGGSLRLSCTVSGFSLSNYAMSWVRQAPGKGLEYIGIVSSGGTTYYASWAKGRFTISRDNSKNTVYLQMNSLRAEDTASYYCAKDLYYGPTTYSAFNLWGQGTSVTVSS
notes: Fab(scFv)2 dual pMHC-targeting T cell engager, no Fc; also called dual engager M1403
As for B8, the binding result in assay [7] is listed as “binds”.
